{
  "source": "paper PMC2819549",
  "key": {"[1]": {"target": "human cytochrome P450 3A4 (CYP3A4), wild type, His-tagged (human) (UniProt P08684)"}, "[2]": {"target": "human cytochrome P450 3A4 (CYP3A4), wild type, His-tagged (human) (UniProt P08684)", "experiment": "UV-Vis absorbance"}, "[3]": {"target": "human cytochrome P450 3A4 (CYP3A4), wild type, His-tagged (human) (UniProt P08684)", "experiment": "UV-Vis absorbance", "remark": "listed apart in the source"}, "[4]": {"target": "human cytochrome P450 3A4 (CYP3A4), wild type, His-tagged (human) (UniProt P08684)", "experiment": "UV-Vis absorbance", "remark": "listed apart in the source"}},
  "note": "Like-named read-outs stand apart in the source and are kept apart here.",
  "data": [
    {"substance": "flavin domain of cytochrome P450BM-3 from Bacillus megaterium (BMR) (domain or fragment)", "values": [
      {"measurement": "total reducibility of CYP3A4 by BMR; CYP3A4-ND, with 1-PB", "setting": "[1]", "result": 91, "unit": "%"},
      {"measurement": "total reducibility of CYP3A4 by BMR; CYP3A4-ND, with ANF", "setting": "[1]", "result": 79, "unit": "%"},
      {"measurement": "total reducibility of CYP3A4 by BMR; proteoliposomes LPS-76, no substrate", "setting": "[1]", "result": 55, "unit": "%"},
      {"measurement": "total reducibility of CYP3A4 by BMR; proteoliposomes LPS-76, with ANF", "setting": "[1]", "result": 47, "unit": "%"},
      {"measurement": "total reducibility of CYP3A4 by BMR; proteoliposomes LPS-910, no substrate", "setting": "[1]", "result": 83, "unit": "%"},
      {"measurement": "total reducibility of CYP3A4 by BMR; proteoliposomes LPS-910, with ANF", "setting": "[1]", "result": 85, "unit": "%"},
      {"measurement": "Kd", "setting": "[2]", "result": 140, "unit": "nM"},
      {"measurement": "stoichiometry N", "setting": "[2]", "result": 1},
      {"measurement": "stoichiometry N", "setting": "[3]", "result": 1},
      {"measurement": "Kd", "setting": "[4]", "result": 100, "unit": "nM"}
    ]}
  ]
}
